# From the supplement of paper PMC6755084
# B1: F1*; the commonest letter at each place (parent)
# chain: GAGACCGCAACTGAAAAGTTGTTATCACTTGTCGTAAGACACTTTGGATGGGTTGAAGTTCTGCACGTAGAAGCAAAAGGC
# Variants of: B1
# Experiment: fraction ligated after 30 min (ligated reads / total reads); higher = more ligase activity
# Details: with F1*sub RNA substrate (template-directed ligation), 42 °C
# Method in brief: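 The ligase ribozyme variants were produced by PCR amplification of oligo-pool templates, T7 transcription and purification on gel. Their ligated and unligated forms were gel-separated, then reverse transcribed with barcoded primers before MiSeq sequencing. Core bases were filtered at a quality of ≥20, and fraction ligated per variant was ligated reads over total reads.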
row,Variant,fraction ligated
1,GAGACCGCAACTGAAAAGTTGTTATCACTTGTTGTAAGACACTTAGGATGGGTTGAAGTTCTGCACGTAGAAGCAAAAGGC [C33T T45A],0.75
2,GAGACCGCAACTGAAAAGTTGTTATCACTTGTCATAAGAGACTTTGGATGGGTTGAAGTTCTGCACGTAGAAGCAAAAGGC [G34A C40G],0.833
3,GAGACCGCAACTGAAAAGTTGTTATCACTTGTCATAAGATACTTTGGATGGGTTGAAGTTCTGCACGTAGAAGCAAAAGGC [G34A C40T],0.81
4,GAGACCGCAACTGAAAAGTTGTTATCACTTGTCATAAGAAACTTTGGATGGGTTGAAGTTCTGCACGTAGAAGCAAAAGGC [G34A C40A],0.817
5,GAGACCGCAACTGAAAAGTTGTTATCACTTGTTGTAAGACACCTTGGATGGGTTGAAGTTCTGCACGTAGAAGCAAAAGGC [C33T T43C],0.822
6,GAGACCGCAACTGAAAAGTTGTTATCACTTGTTGTAAGACACGTTGGATGGGTTGAAGTTCTGCACGTAGAAGCAAAAGGC [C33T T43G],0.78
7,GAGACCGCAACTGAAAAGTTGTTATCACTTGTTGTAAGACACATTGGATGGGTTGAAGTTCTGCACGTAGAAGCAAAAGGC [C33T T43A],0.831
8,GAGACCGCAACTGAAAAGTTGTTATCACTTGTTGTAAGACACTTTGGAAGGGTTGAAGTTCTGCACGTAGAAGCAAAAGGC [C33T T49A],0.787
9,GAGACCGCAACTGAAAAGTTGTTATCACTTGTTGTAAGACACTTTGGACGGGTTGAAGTTCTGCACGTAGAAGCAAAAGGC [C33T T49C],0.697
10,GAGACCGCAACTGAAAAGTTGTTATCACTTGTTGTAAGACACTTTGGAGGGGTTGAAGTTCTGCACGTAGAAGCAAAAGGC [C33T T49G],0.801
11,GAGACCGCAACTGAAAAGTTGTTATCACTTGTTGTAAGACACTTTGAATGGGTTGAAGTTCTGCACGTAGAAGCAAAAGGC [C33T G47A],0.836
12,GAGACCGCAACTGAAAAGTTGTTATCACTTGTTGTAAGACACTTTGTATGGGTTGAAGTTCTGCACGTAGAAGCAAAAGGC [C33T G47T],0.32
13,GAGACCGCAACTGAAAAGTTGTTATCACTTGTTGTAAGACACTTTGCATGGGTTGAAGTTCTGCACGTAGAAGCAAAAGGC [C33T G47C],0.165
14,GAGACCGCAACTGAAAAGTTGTTATCACTTGTTGTAAGACACTTTCGATGGGTTGAAGTTCTGCACGTAGAAGCAAAAGGC [C33T G46C],0.807
15,GAGACCGCAACTGAAAAGTTGTTATCACTTGTTGTAAGACACTTTTGATGGGTTGAAGTTCTGCACGTAGAAGCAAAAGGC [C33T G46T],0.791
16,GAGACCGCAACTGAAAAGTTGTTATCACTTGTTGTAAGACACTTTAGATGGGTTGAAGTTCTGCACGTAGAAGCAAAAGGC [C33T G46A],0.831
17,GAGACCGCAACTGAAAAGTTGTTATCACTTGTCATAAGACTCTTTGGATGGGTTGAAGTTCTGCACGTAGAAGCAAAAGGC [G34A A41T],0.811

row,Variant,fraction ligated
1,GAGACCGCAACTGAAAAGTTGTTATCACTTGTCATAAGACCCTTTGGATGGGTTGAAGTTCTGCACGTAGAAGCAAAAGGC [G34A A41C],0.76
2,GAGACCGCAACTGAAAAGTTGTTATCACTTGTCATAAGACGCTTTGGATGGGTTGAAGTTCTGCACGTAGAAGCAAAAGGC [G34A A41G],0.81
3,GAGACCGCAACTGAAAAGTTGTTATCACTTGTCATACGACACTTTGGATGGGTTGAAGTTCTGCACGTAGAAGCAAAAGGC [G34A A37C],0.835
4,GAGACCGCAACTGAAAAGTTGTTATCACTTGTCATATGACACTTTGGATGGGTTGAAGTTCTGCACGTAGAAGCAAAAGGC [G34A A37T],0.84
5,GAGACCGCAACTGAAAAGTTGTTATCACTTGTCATAGGACACTTTGGATGGGTTGAAGTTCTGCACGTAGAAGCAAAAGGC [G34A A37G],0.859
6,GAGACCGCAACTGAAAAGTTGTTATCACTTGTCATAAGACACTTTGGATGGGTTGATGTTCTGCACGTAGAAGCAAAAGGC [G34A A57T],0.822
7,GAGACCGCAACTGAAAAGTTGTTATCACTTGTCATAAGACACTTTGGATGGGTTGAGGTTCTGCACGTAGAAGCAAAAGGC [G34A A57G],0.835
8,GAGACCGCAACTGAAAAGTTGTTATCACTTGTCATAAGACACTTTGGATGGGTTGACGTTCTGCACGTAGAAGCAAAAGGC [G34A A57C],0.791
9,GAGACCGCAACTGAAAAGTTGTTATCACTTGTCATAAGACACTTTGGATGGGTTGCAGTTCTGCACGTAGAAGCAAAAGGC [G34A A56C],0.804
10,GAGACCGCAACTGAAAAGTTGTTATCACTTGTCATAAGACACTTTGGATGGGTTGTAGTTCTGCACGTAGAAGCAAAAGGC [G34A A56T],0.819
11,GAGACCGCAACTGAAAAGTTGTTATCACTTGTCATAAGACACTTTGGATGGGTTGGAGTTCTGCACGTAGAAGCAAAAGGC [G34A A56G],0.775
12,GAGACCGCAACTGAAAAGTTGTTATCACTTGTTGTAAGACACTTTGGATTGGTTGAAGTTCTGCACGTAGAAGCAAAAGGC [C33T G50T],0.804
13,GAGACCGCAACTGAAAAGTTGTTATCACTTGTTGTAAGACACTTTGGATCGGTTGAAGTTCTGCACGTAGAAGCAAAAGGC [C33T G50C],0.324
14,GAGACCGCAACTGAAAAGTTGTTATCACTTGTTGTAAGACACTTTGGATAGGTTGAAGTTCTGCACGTAGAAGCAAAAGGC [C33T G50A],0.603
15,GAGACCGCAACTGAAAAGTTGTTATCACTTGTTGTAAGAAACTTTGGATGGGTTGAAGTTCTGCACGTAGAAGCAAAAGGC [C33T C40A],0.875
16,GAGACCGCAACTGAAAAGTTGTTATCACTTGTTGTAAGATACTTTGGATGGGTTGAAGTTCTGCACGTAGAAGCAAAAGGC [C33T C40T],0.859
17,GAGACCGCAACTGAAAAGTTGTTATCACTTGTTGTAAGAGACTTTGGATGGGTTGAAGTTCTGCACGTAGAAGCAAAAGGC [C33T C40G],0.877
